Laboratory results as given in PMC11820146.

Target: growth hormone receptor (GHR) (UniProt P10912)
UniProt P10912, sequence (P10912 19-638): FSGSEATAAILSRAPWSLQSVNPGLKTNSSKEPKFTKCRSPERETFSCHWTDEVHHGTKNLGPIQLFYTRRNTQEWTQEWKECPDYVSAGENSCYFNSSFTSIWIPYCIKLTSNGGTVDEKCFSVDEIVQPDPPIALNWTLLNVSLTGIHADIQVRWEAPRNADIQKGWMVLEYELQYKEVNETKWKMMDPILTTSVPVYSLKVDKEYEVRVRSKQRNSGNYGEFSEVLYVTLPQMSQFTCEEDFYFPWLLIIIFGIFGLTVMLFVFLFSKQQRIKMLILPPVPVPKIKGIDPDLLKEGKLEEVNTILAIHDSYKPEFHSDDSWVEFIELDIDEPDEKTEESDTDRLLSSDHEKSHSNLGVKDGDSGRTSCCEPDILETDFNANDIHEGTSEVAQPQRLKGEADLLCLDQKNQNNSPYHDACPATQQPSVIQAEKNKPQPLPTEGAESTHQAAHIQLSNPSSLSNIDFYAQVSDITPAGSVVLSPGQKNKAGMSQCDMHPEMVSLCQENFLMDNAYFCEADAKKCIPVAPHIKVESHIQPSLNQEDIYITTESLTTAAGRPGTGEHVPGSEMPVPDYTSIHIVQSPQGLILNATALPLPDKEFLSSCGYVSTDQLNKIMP

Substance	bioactivity relative to the PEG-rhGH reference, reporter gene assay (luciferase, HepG2/IGF-1 cells)
PEG-rhGH isomer P1 (PEGylated recombinant human growth hormone, modified at the N-terminus) (from UniProt P01241 27-217) (ligand)	71.1%
PEG-rhGH isomer P2 (PEGylated recombinant human growth hormone, modified at K140) (from UniProt P01241 27-217) (ligand)	163%
PEG-rhGH isomer P3 (PEGylated recombinant human growth hormone, modified at K145) (from UniProt P01241 27-217) (ligand)	143%
PEG-rhGH isomer P4 (PEGylated recombinant human growth hormone, modified at K38) (from UniProt P01241 27-217) (ligand)	29%
PEG-rhGH isomer P5 (PEGylated recombinant human growth hormone, modified at K158) (from UniProt P01241 27-217) (ligand)	107%
